{"source": "paper PMC10786891", "about": "“Massively parallel profiling of RNA-targeting CRISPR-Cas13d”", "binders": {"B1": {"name": "target 1 MT 5'PFS GCG 3'PFS CUG (mixed)", "RNA 1": "CACCCGUGCAAAAAUGCAGGGGUCUAAAACUGAGCGGAUAACCUCUCUAUGG", "RNA 2": "GGGAAUGGAUCCACAUCUACGAAUUCGCGCCAUAGAGAGGUUAUCCGCUCACUGAGAUCGGAAGAGCACACGU"}, "B2": {"name": "target 1 MT 5'PFS GGA 3'PFS AGG (mixed)", "RNA 1": "B1 RNA 1", "RNA 2": "B1 RNA 2 with C28G, G29A, C52A, U53G"}, "B3": {"name": "target 1 MT 5'PFS GGU 3'PFS UCU (mixed)", "RNA 1": "B1 RNA 1", "RNA 2": "B1 RNA 2 with C28G, G29U, C52U, U53C, G54U"}, "B4": {"name": "target 1 MT 5'PFS GAC 3'PFS CCG (mixed)", "RNA 1": "B1 RNA 1", "RNA 2": "B1 RNA 2 with C28A, G29C, U53C"}, "B5": {"name": "target 1 MT 5'PFS GCG 3'PFS CUU (mixed)", "RNA 1": "B1 RNA 1", "RNA 2": "B1 RNA 2 with G54U"}, "B6": {"name": "target 1 MT 5'PFS UUA 3'PFS UUA (mixed)", "RNA 1": "B1 RNA 1", "RNA 2": "B1 RNA 2 with G27U, C28U, G29A, C52U, G54A"}, "B7": {"name": "target 1 MT 5'PFS UUA 3'PFS UUC (mixed)", "RNA 1": "B1 RNA 1", "RNA 2": "B1 RNA 2 with G27U, C28U, G29A, C52U, G54C"}, "B8": {"name": "target 1 insC 3' of 12,insC 3' of 8 (mixed)", "RNA 1": "B1 RNA 1", "RNA 2": "GGGAAUGGAUCCACAUCUACGAAUUCGUACCAUAGAGAGGCUUAUCCCGCUCACCGAGAUCGGAAGAGCACACGU"}, "B9": {"name": "target 1 MT 5'PFS UUA 3'PFS UUG (mixed)", "RNA 1": "B1 RNA 1", "RNA 2": "B1 RNA 2 with G27U, C28U, G29A, C52U"}, "B10": {"name": "target 1 MT 5'PFS GUG 3'PFS CUG (mixed)", "RNA 1": "B1 RNA 1", "RNA 2": "B1 RNA 2 with C28U"}, "B11": {"name": "target 1 MT 5'PFS UCC 3'PFS UAG (mixed)", "RNA 1": "B1 RNA 1", "RNA 2": "B1 RNA 2 with G27U, G29C, C52U, U53A"}, "B12": {"name": "target 1 MT 5'PFS UCG 3'PFS ACA (mixed)", "RNA 1": "B1 RNA 1", "RNA 2": "B1 RNA 2 with G27U, C52A, U53C, G54A"}, "B13": {"name": "target 1 MT 5'PFS UCC 3'PFS UAU (mixed)", "RNA 1": "B1 RNA 1", "RNA 2": "B1 RNA 2 with G27U, G29C, C52U, U53A, G54U"}, "B14": {"name": "target 1 MT 5'PFS GAG 3'PFS ACU (mixed)", "RNA 1": "B1 RNA 1", "RNA 2": "B1 RNA 2 with C28A, C52A, U53C, G54U"}, "B15": {"name": "target 1 MT 5'PFS GCG 3'PFS ACC (mixed)", "RNA 1": "B1 RNA 1", "RNA 2": "B1 RNA 2 with C52A, U53C, G54C"}, "B16": {"name": "target 1 MT 5'PFS GAG 3'PFS ACG (mixed)", "RNA 1": "B1 RNA 1", "RNA 2": "B1 RNA 2 with C28A, C52A, U53C"}, "B17": {"name": "target 1 MT 5'PFS AAU 3'PFS UGA (mixed)", "RNA 1": "B1 RNA 1", "RNA 2": "B1 RNA 2 with G27A, C28A, G29U, C52U, U53G, G54A"}, "B18": {"name": "target 1 MT 5'PFS GAG 3'PFS ACA (mixed)", "RNA 1": "B1 RNA 1", "RNA 2": "B1 RNA 2 with C28A, C52A, U53C, G54A"}, "B19": {"name": "target 1 insU 3' of 2,insC 3' of 1 (mixed)", "RNA 1": "B1 RNA 1", "RNA 2": "B8 RNA 2 with C41U, U43A, A44U, U45C, C47G, G49U, C52A, A53C"}, "B20": {"name": "target 1 del5,del13 (mixed)", "RNA 1": "B1 RNA 1", "RNA 2": "GGGAAUGGAUCCACAUCUACGAAUUCGUACCAUAGAGAGUUAUCCCUCACCGAGAUCGGAAGAGCACACGU"}, "B21": {"name": "target 1 MT 5'PFS GGA 3'PFS UGC (mixed)", "RNA 1": "B1 RNA 1", "RNA 2": "B1 RNA 2 with C28G, G29A, C52U, U53G, G54C"}, "B22": {"name": "target 1 MT 5'PFS GGA 3'PFS UGA (mixed)", "RNA 1": "B1 RNA 1", "RNA 2": "B1 RNA 2 with C28G, G29A, C52U, U53G, G54A"}, "B23": {"name": "target 1 MT 5'PFS CAA 3'PFS UGA (mixed)", "RNA 1": "B1 RNA 1", "RNA 2": "B1 RNA 2 with G27C, C28A, G29A, C52U, U53G, G54A"}, "B24": {"name": "target 1 MT 5'PFS CCA 3'PFS UAA (mixed)", "RNA 1": "B1 RNA 1", "RNA 2": "B1 RNA 2 with G27C, G29A, C52U, U53A, G54A"}, "B25": {"name": "target 1 MT 5'PFS UCG 3'PFS ACC (mixed)", "RNA 1": "B1 RNA 1", "RNA 2": "B1 RNA 2 with G27U, C52A, U53C, G54C"}, "B26": {"name": "target 1 MT 5'PFS CAU 3'PFS ACU (mixed)", "RNA 1": "B1 RNA 1", "RNA 2": "B1 RNA 2 with G27C, C28A, G29U, C52A, U53C, G54U"}, "B27": {"name": "target 1 MT 5'PFS UUG 3'PFS UUG (mixed)", "RNA 1": "B1 RNA 1", "RNA 2": "B1 RNA 2 with G27U, C28U, C52U"}, "B28": {"name": "target 1 MT 5'PFS GGA 3'PFS UGU (mixed)", "RNA 1": "B1 RNA 1", "RNA 2": "B1 RNA 2 with C28G, G29A, C52U, U53G, G54U"}, "B29": {"name": "target 1 MT 5'PFS UGC 3'PFS UAU (mixed)", "RNA 1": "B1 RNA 1", "RNA 2": "B1 RNA 2 with G27U, C28G, G29C, C52U, U53A, G54U"}, "B30": {"name": "target 1 MT 5'PFS GUG 3'PFS CCU (mixed)", "RNA 1": "B1 RNA 1", "RNA 2": "B1 RNA 2 with C28U, U53C, G54U"}, "B31": {"name": "target 1 insU 3' of 18,insA 3' of 12 (mixed)", "RNA 1": "B1 RNA 1", "RNA 2": "GGGAAUGGAUCCACAUCUACGAAUUCGUACCAUAUGAGAGGAUUAUCCGCUCACCGAGAUCGGAAGAGCACACGU"}, "B32": {"name": "target 1 MT 5'PFS CAU 3'PFS UCU (mixed)", "RNA 1": "B1 RNA 1", "RNA 2": "B1 RNA 2 with G27C, C28A, G29U, C52U, U53C, G54U"}, "B33": {"name": "target 1 MT 5'PFS GGA 3'PFS AUU (mixed)", "RNA 1": "B1 RNA 1", "RNA 2": "B1 RNA 2 with C28G, G29A, C52A, G54U"}, "B34": {"name": "target 1 MT 5'PFS GUG 3'PFS CCG (mixed)", "RNA 1": "B1 RNA 1", "RNA 2": "B1 RNA 2 with C28U, U53C"}, "B35": {"name": "target 1 MT 5'PFS GUG 3'PFS CCA (mixed)", "RNA 1": "B1 RNA 1", "RNA 2": "B1 RNA 2 with C28U, U53C, G54A"}, "B36": {"name": "target 1 MT 5'PFS GUG 3'PFS CCC (mixed)", "RNA 1": "B1 RNA 1", "RNA 2": "B1 RNA 2 with C28U, U53C, G54C"}, "B37": {"name": "target 1 MT 5'PFS CAU 3'PFS UCA (mixed)", "RNA 1": "B1 RNA 1", "RNA 2": "B1 RNA 2 with G27C, C28A, G29U, C52U, U53C, G54A"}, "B38": {"name": "target 1 MT 5'PFS GGA 3'PFS AUC (mixed)", "RNA 1": "B1 RNA 1", "RNA 2": "B1 RNA 2 with C28G, G29A, C52A, G54C"}, "B39": {"name": "target 1 MT 5'PFS GGA 3'PFS AUA (mixed)", "RNA 1": "B1 RNA 1", "RNA 2": "B1 RNA 2 with C28G, G29A, C52A, G54A"}}, "note": "Changes are numbered by the printed parent chain.", "data": [{"biological_target": "T1, EsCas13d, nuclease-dead (Eubacterium siraeum, UniProt B0MS50, R295A;H300A;R849A;H854A)", "T1 sequence": "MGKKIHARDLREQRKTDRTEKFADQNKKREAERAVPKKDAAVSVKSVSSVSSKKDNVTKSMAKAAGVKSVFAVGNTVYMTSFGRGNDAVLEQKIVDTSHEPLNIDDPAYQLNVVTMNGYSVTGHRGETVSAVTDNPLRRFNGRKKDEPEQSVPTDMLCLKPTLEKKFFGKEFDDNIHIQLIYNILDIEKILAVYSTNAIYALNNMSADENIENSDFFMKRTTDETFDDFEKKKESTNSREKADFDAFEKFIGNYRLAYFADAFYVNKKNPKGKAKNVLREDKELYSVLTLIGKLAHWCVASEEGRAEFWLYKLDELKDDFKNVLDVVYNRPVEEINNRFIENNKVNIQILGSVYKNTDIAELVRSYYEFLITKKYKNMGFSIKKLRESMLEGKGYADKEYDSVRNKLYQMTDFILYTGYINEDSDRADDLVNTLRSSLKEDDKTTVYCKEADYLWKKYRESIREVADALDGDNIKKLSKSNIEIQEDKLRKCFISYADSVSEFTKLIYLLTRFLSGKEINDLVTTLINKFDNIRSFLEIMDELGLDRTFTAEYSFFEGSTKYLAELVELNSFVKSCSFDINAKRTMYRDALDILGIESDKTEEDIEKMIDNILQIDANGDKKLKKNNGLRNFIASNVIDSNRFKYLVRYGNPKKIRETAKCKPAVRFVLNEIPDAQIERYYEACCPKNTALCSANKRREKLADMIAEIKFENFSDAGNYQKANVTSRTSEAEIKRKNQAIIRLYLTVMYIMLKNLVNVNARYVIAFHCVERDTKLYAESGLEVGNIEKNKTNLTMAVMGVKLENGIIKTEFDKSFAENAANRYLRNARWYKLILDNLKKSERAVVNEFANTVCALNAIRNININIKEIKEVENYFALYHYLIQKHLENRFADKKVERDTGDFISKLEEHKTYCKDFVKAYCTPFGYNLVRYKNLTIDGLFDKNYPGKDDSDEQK", "assay": "crRNA (strand 1, pre-loaded); Mg2+; 40 mM Tris-HCl pH 7.5, 150 mM NaCl, 6 mM MgCl2, 1 mM DTT, 0.1% Tween-20, 0.2 mg/ml BSA; 25 C; 10 min per concentration, then washed", "settings": "tags: His6-TwinStrep-SUMO cleaved; N-terminal SNAP kept (SNAP-Surface 488); label: 3' end held by stalled T7 RNA polymerase", "units": {"Kd": "nM"}, "values": [{"binder": "B1", "Kd": "10.7 ± 1.8"}, {"binder": "B2", "Kd": "31 ± 4.5"}, {"binder": "B3", "Kd": "34 ± 8.5"}, {"binder": "B4", "Kd": "13.8 ± 3"}, {"binder": "B5", "Kd": "15.6 ± 3.75"}, {"binder": "B6", "Kd": "30.5 ± 5"}, {"binder": "B7", "Kd": "17.5 ± 3.9"}, {"binder": "B8", "Kd": "32.1 ± 2.8"}, {"binder": "B9", "Kd": "11.8 ± 1.2"}, {"binder": "B10", "Kd": "10.3 ± 0.6"}, {"binder": "B11", "Kd": "49 ± 22.5"}, {"binder": "B12", "Kd": "36 ± 8"}, {"binder": "B13", "Kd": "~12.6"}, {"binder": "B14", "Kd": "24.9 ± 4.75"}, {"binder": "B15", "Kd": "20 ± 8.5"}, {"binder": "B16", "Kd": "32 ± 8.5"}, {"binder": "B17", "Kd": "61 ± 17"}, {"binder": "B18", "Kd": "~43"}, {"binder": "B19", "Kd": "11.1 ± 0.5"}, {"binder": "B20", "Kd": "11.5 ± 0.9"}, {"binder": "B21", "Kd": "8.3 ± 1.1"}, {"binder": "B22", "Kd": "16.2 ± 3.15"}, {"binder": "B23", "Kd": "~41"}, {"binder": "B24", "Kd": "3.85 ± 1.9"}, {"binder": "B25", "Kd": "32.5 ± 14"}, {"binder": "B26", "Kd": "61.5 ± 26"}, {"binder": "B27", "Kd": "18.2 ± 3.2"}, {"binder": "B28", "Kd": "48 ± 13"}, {"binder": "B29", "Kd": "13.8 ± 5"}, {"binder": "B30", "Kd": "10.6 ± 1.1"}, {"binder": "B31", "Kd": "63 ± 14"}, {"binder": "B32", "Kd": "~65"}, {"binder": "B33", "Kd": "17.6 ± 3.55"}, {"binder": "B34", "Kd": "11.7 ± 1.05"}, {"binder": "B35", "Kd": "46 ± 7.5"}, {"binder": "B36", "Kd": "23 ± 4"}, {"binder": "B37", "Kd": "~35"}, {"binder": "B38", "Kd": "22.5 ± 9"}, {"binder": "B39", "Kd": "29 ± 7"}]}]}
